Test results as given in patent US20240417458A1 (DISC MEDICINE, published 2024).

Columns and labels:
Assay in all cases: SPR (BIAcore), RGM antigen in solution
Rat RGMc = target: T1, Rat RGMc (rat, UniProt Q8N7M5 36-396, limits assumed)
T1 sequence (looked up): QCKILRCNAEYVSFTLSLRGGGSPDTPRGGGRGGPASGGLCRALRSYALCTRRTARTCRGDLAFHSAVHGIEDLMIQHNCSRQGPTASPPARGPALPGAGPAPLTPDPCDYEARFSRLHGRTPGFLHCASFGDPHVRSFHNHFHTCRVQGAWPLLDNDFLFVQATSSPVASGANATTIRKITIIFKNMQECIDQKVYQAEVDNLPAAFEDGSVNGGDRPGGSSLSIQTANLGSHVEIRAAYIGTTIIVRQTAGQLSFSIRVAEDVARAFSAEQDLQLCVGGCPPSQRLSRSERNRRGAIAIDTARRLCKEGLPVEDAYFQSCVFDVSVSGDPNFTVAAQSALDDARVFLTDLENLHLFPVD

soluble human RGMa = target: T2, soluble human RGMa (human, UniProt Q96B86 48-422, limits assumed)
T2 construct: Soluble antigen in BIAcore; also called huRGMa; repulsive guidance molecule A
T2 sequence (looked up): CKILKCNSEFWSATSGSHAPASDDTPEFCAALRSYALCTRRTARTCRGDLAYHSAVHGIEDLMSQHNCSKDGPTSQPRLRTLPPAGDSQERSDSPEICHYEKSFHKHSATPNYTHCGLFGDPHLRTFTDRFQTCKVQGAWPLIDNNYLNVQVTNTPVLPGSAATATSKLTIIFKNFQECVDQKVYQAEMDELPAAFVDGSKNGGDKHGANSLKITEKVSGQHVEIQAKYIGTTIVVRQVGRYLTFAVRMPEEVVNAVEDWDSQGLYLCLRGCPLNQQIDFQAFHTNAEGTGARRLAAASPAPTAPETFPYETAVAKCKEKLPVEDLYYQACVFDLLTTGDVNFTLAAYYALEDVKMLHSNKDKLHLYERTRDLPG

Cyno RGMa = target: T3, Cyno RGMa (cyno, UniProt Q9N0A6 54-433, limits assumed)
T3 sequence (looked up): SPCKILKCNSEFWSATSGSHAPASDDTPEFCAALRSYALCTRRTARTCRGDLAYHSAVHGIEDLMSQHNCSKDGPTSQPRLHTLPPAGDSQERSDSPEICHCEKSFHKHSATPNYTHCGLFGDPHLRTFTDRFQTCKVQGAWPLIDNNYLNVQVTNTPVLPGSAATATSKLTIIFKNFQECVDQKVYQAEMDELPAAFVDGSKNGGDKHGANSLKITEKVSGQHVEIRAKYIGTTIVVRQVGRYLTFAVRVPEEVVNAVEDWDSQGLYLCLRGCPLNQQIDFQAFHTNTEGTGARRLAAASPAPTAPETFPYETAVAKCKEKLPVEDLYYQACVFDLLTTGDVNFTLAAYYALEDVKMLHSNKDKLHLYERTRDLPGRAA

soluble rat RGMa = target: T4, soluble rat RGMa (rat, UniProt D4A188 48-421)
T4 construct: Soluble antigen in BIAcore
T4 sequence: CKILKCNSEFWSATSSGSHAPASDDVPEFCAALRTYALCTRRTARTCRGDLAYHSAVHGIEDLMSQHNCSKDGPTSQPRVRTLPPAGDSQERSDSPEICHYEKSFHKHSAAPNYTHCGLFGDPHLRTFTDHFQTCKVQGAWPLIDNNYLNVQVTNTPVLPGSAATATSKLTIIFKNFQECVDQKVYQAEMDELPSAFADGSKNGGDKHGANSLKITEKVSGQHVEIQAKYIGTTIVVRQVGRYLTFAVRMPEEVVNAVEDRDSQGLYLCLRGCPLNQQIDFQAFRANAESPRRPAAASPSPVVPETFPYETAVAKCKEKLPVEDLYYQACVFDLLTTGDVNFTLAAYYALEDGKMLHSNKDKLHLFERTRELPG

Cyno RGMc = target: T5, Cyno RGMc (cyno, UniProt A0A2K5TJX5 36-401)
T5 sequence: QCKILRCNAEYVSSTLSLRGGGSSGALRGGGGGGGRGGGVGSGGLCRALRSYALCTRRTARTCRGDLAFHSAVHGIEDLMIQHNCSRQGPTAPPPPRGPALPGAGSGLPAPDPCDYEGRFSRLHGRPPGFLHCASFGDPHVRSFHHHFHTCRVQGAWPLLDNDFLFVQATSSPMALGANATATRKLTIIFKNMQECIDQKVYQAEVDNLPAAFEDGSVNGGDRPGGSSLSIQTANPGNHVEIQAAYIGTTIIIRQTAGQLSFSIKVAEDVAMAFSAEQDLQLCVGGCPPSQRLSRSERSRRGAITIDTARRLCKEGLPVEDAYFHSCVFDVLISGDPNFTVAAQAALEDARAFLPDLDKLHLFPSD

- Kd (Rat RGMc): 0.23 nM
- koff (Rat RGMc): 0.00032 s⁻¹
- kon (Rat RGMc): 1.4e+06 M⁻¹ s⁻¹
- Kd (soluble human RGMa): 0.074 nM
- koff (soluble human RGMa): 3.6e-05 s⁻¹
- kon (soluble human RGMa): 490000 M⁻¹ s⁻¹
- Kd (Cyno RGMa): 0.64 nM
- koff (Cyno RGMa): 0.00035 s⁻¹
- kon (Cyno RGMa): 550000 M⁻¹ s⁻¹
- Kd (soluble rat RGMa): 0.12 nM
- koff (soluble rat RGMa): 3.6e-05 s⁻¹
- kon (soluble rat RGMa): 310000 M⁻¹ s⁻¹
- Kd (Cyno RGMc): 0.12 nM
- koff (Cyno RGMc): 0.00031 s⁻¹
- kon (Cyno RGMc): 2.6e+06 M⁻¹ s⁻¹
B1: hHA-008 (antibody, human IgG1, kappa, L234A L235A)
heavy: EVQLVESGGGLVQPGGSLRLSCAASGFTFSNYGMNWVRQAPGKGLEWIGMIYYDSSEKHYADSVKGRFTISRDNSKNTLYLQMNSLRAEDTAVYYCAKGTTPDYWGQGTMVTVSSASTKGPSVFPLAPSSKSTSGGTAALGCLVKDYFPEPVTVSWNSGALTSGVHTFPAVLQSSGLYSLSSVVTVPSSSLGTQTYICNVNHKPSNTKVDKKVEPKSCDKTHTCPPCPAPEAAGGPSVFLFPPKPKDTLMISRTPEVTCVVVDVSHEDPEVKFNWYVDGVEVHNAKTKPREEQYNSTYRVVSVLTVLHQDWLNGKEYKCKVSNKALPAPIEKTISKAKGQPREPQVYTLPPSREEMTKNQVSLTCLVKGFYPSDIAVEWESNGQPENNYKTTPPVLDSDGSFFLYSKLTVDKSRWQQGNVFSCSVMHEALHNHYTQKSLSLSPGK
light: DVVLTQSPLSLPVTLGQPASISCRSSQSLEESDGYTFLHWFQQRPGQSPRLLIYEVSTRFSGVPDRFSGSGSGTDFTLKISRVEAEDVGVYYCFQATHDPLTFGQGTKLEIKRTVAAPSVFIFPPSDEQLKSGTASVVCLLNNFYPREAKVQWKVDNALQSGNSQESVTEQDSKDSTYSLSSTLTLSKADYEKHKVYACEVTHQGLSSPVTKSFNRGEC
notes: hIgG1 L234A, L235A, kappa; also called hHA-008 (hIgG1mut(LALA)/k)
